# Results as given in the supplement of paper PMC12764529.
# ± gives the half width of the 95% confidence interval.
# Columns and labels:
# [1] = folding stability dG unfold from trypsin proteolysis; higher = more stable
# Method in brief: (§1)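 Designed mini-proteins (under 80 residues, no cysteine) in a PA-tagged cDNA display construct were digested with trypsin and chymotrypsin. Each protease was used at 11 concentrations (threefold dilutions) plus a no-protease condition, followed by sequencing. K50 was inferred by Bayesian fitting of sequencing counts, and unfolding free energy was derived against a sequence-predicted unfolded-state K50 and a shared folded-state K50, per protease or combined. Only designs with AlphaFold2 dimer inter-PAE above 15 were kept.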
# [2] = folding stability dG unfold from chymotrypsin proteolysis; higher = more stable
# Method in brief: as §1
# [3] = folding stability dG unfold (combined trypsin and chymotrypsin); higher = more stable
# Method in brief: as §1
Sequence,folding stability dG unfold [1] [kcal/mol],folding stability dG unfold [2] [kcal/mol],folding stability dG unfold [3] [kcal/mol]
SAGGKLTITVKVNENGELIATVEITEVVENAKPGDVLTVKAKVVNPKTKETKEIEAKIKVENGKLVLESAGG [r13_208_TrROS_Hall],2.1 ± 0.077,2.33 ± 0.069,2.16 ± 0.12
SAGGKMTLKDIEIIEVIEKDGEIEVVLIRNKKTNKVIAIPREDLEKLLSLPEDVEVVRLRIKPGEKLSAGGS [r16_61_TrROS_Hall],1.3 ± 0.07,1.34 ± 0.15,1.32 ± 0.18
SAGGKNLKPIGTVTLTNPKGEKVEIVEFEGPVFVVLTPKDGSKKIVSAEGKSLEEILKELEKEGYEVEPSAG [r5_613_TrMRF],1.22 ± 0.061,2.15 ± 0.081,1.76 ± 0.15
SAGGKPKVYEFEITIEFKTKTKKDKNGKTYKVKKIKIKIKVKVVVDEENKKIYIFDENGKLIAEFELSAGGS [r16_92_TrROS_Hall],3 ± 0.22,4.01 ± 0.13,3.72 ± 0.26
SAGGKPPKTVTVTLTLPDGVKITIEYNEETGEVTVTIEVFKDGKLVKTITITAPSLDEALEALKKLLSAGGS [r16_55_TrROS_Hall],3.25 ± 0.23,4.19 ± 0.18,3.87 ± 0.13
SAGGKPPNLKIKIEVIPIPNGYWIITFRIKVPPNEPLKIRFPDFGREIEFPPGDEVTIMILIPPDDLSAGGS [r16_56_TrROS],3.64 ± 0.2,4.8 ± 0.2,4.62 ± 0.35
SAGGKQEIEIPIPYKNGMPFRIRIEWEEDPNKPRLRIPIWAPNMPASNFAEEIKKELPPDIKDVEIWPSAGG [r13_404_TrROS],0.685 ± 0.2,0.0456 ± 0.72,0.0846 ± 0.64
SAGGKSISFGKKAGKEKMKEAIKKGLKNIKIVVFKDGKPEVIEVKADDLDKVFDNIPEDSIVVFEPESAGGS [r16_636_TrMRF],1.28 ± 0.06,2.19 ± 0.038,2.17 ± 0.17
SAGGKTIVVPEKDVEKLLKELEKLGFKVTKVERKDGYVTVTIEVEKDGKLEKIEIRIYRPEDLDKPPSAGGS [r8_307_TrROS_Hall],1.1 ± 0.072,2.28 ± 0.06,2.01 ± 0.15
SAGGKTKTYTFVLEDPVKKGIPVLAKVTVTYEPDENGNEVAPANVVVYYPDGKPEVLKVDVSNITGTGSAGG [r13_787_TrMRF],0.123 ± 0.13,1.11 ± 0.053,0.737 ± 0.06
SAGGKTKVINVKVKSIEELLEKLAKLPNVKKVEVKEVNGKKEITIEVDGKKIKITKNKDGYYSIEIFPSAGG [r13_907_TrROS_Hall],2.16 ± 0.12,1.98 ± 0.34,2.25 ± 0.37
SAGGKTLVIKMKFKTKEEAEEAIKKLLEELGLPEGAKIEVTVERDENGELTVTITITVKDPEVLKALSAGGS [r8_85_TrROS_Hall],2 ± 0.11,2.66 ± 0.036,2.48 ± 0.076
SAGGKTLYVRIIIENKKTGKKEEKIIKIKNVKTLDELLEKAKKEAEKKGYKIKKIEVYDKKTGKKLKLSAGG [r13_771_TrROS_Hall],1.79 ± 0.088,1.28 ± 0.27,1.73 ± 0.39
SAGGKTTVLIITENPDGTPKAIPIPLDELDIEEIVELIKELVEEGRKLKVFVPADTPPELIKAIKEAASAGG [r13_251_TrMRF],3.4 ± 0.087,3.2 ± 0.067,3.31 ± 0.056
SAGGKTVEIKVKVKSLEELKAAIEALKKAGIKDVKVTKIELEKNEDGSLYARVTIEVEPAPEVVEEKESAGG [r13_174_TrROS_Hall],2.78 ± 0.095,3.08 ± 0.073,3.15 ± 0.2
SAGGKTVIIEGMSLEELLELIKNAKPGDTITITLKVKVEEYKYENGKLVEKKEFEKTLTLTLKIEEKESAGG [r13_632_TrROS_Hall],2.57 ± 0.28,4.29 ± 0.19,4.1 ± 0.33
SAGGKTVLVPVKSPEEAKIFIENFPESYDKVIVFNPETGTKAVFYIDPKTREVKEVKVEKFDLNDPNASAGG [r13_945_TrMRF],0.913 ± 0.017,1.22 ± 0.052,1.12 ± 0.066
SAGGKTVTIKVTRPDGKELTIEFEEKDGKVTVRVFDKDGKLVKEIEVDSLEEALKALEEAGYEVEVVPSAGG [r13_315_TrROS_Hall],3.49 ± 0.22,3.36 ± 0.15,3.42 ± 0.2
SAGGKTVTITVPEGMTEEEVKALAEKLIEEGFKEVTVTVTRTKTETLPNGKTKTVTETKTYVFKLPPSAGGS [r16_44_TrROS_Hall],3.45 ± 0.092,4.062 ± 0.036,3.88 ± 0.088
SAGGKTYTIVLPIPPNVPLEEYIKKIEKLLKKLKKNVPISFNKQKKLPNGYYLINFTLTDNKVTGFGSAGGS [r8_7_TrMRF],1.06 ± 0.059,1.91 ± 0.12,1.72 ± 0.18
SAGGKVAAPAQPLASTKVERTTLPTGTTVTYVTVTSSAVPTPTTYTFSPGENPGDFAAATGLPVTLVSAGGS [r16_676_JUSTAS],-0.488 ± 0.29,0.339 ± 0.083,0.126 ± 0.092

Sequence,folding stability dG unfold [1] [kcal/mol],folding stability dG unfold [2] [kcal/mol],folding stability dG unfold [3] [kcal/mol]
SAGGKVEVETKAYFIPETGEVVLLTTVRVETDEEPSEEERENLPEGATRTETFTFVFVFPAKPGSLLSAGGS [r8_274_TrMRF],2.46 ± 0.064,3.52 ± 0.044,3.19 ± 0.092
SAGGKVKILKTEVFEEGDYLKIVDFVEVDSLEEIEELVKNGLENVEAEVRLLPDGRLLVVLVAEIPKESAGG [r13_506_TrMRF],1.26 ± 0.031,1.4 ± 0.026,1.36 ± 0.04
SAGGKVKVEIDPKTIKVTFYDEKGKKIGEIEIEVKPLPIVIENIPLEDIEALKEKFPDIPIIINPDNISAGG [r13_235_TrMRF],2.47 ± 0.22,1.73 ± 0.17,1.83 ± 0.2
SAGGKVLVFYAPSPELIEKWAKELGLKLKKVSKEGDKFVAEFELPSGEKVLVVADEEAFKKLGIDPEKISAG [r5_12_TrMRF],2.93 ± 0.1,4.09 ± 0.12,3.74 ± 0.18
SAGGKVVPILIEGELTAEEIKALIPPGELAVLYDLETGEVRVFSPEDLDKIPSDVPLRFLLLIFRPDSAGGS [r8_66_TrMRF],2.93 ± 0.051,4.31 ± 0.058,3.92 ± 0.11
SAGGKVVPKNVKLPVTKEAEELAKKLAPELGYKKAEVKVKSAVEGYVKVEIYFPETGKKVEITVPVGSAGGS [r16_281_TrMRF],-0.0217 ± 0.086,1.04 ± 0.025,0.739 ± 0.07
SAGGKWIMFMIPPGEEIEDPNGLEIRYDPEEGEFEIENNKRPVKIPVHPHPDGWYMITIEIPPGVEVSAGGS [r16_245_TrROS],1.5 ± 0.074,1.12 ± 0.23,1.55 ± 0.22
SAGGKWRTIQLPGISIQLNPKDGTITVMMPSDMMEELKEAFGPGFEIDEIHHHPDGWMQMTIPIKPPSAGGS [r8_415_TrROS],1.18 ± 0.035,1.75 ± 0.11,1.57 ± 0.15
SAGGKYKVEIIDPKEGEKVFIEIDEETKKITIWNAKTGEKVAEFEIKDLKEGDTITLPNGFVIKIEKESAGG [r13_720_TrROS_Hall],3.67 ± 0.14,4.67 ± 0.079,4.61 ± 0.12
SAGGLAEEIVEELKERFPGMDVDIDVKEEEDPNNGWVKITIMVRVRNPDDNKPRHEIQLDIEIPVDDSAGGS [r8_207_TrROS],1.69 ± 0.056,1.89 ± 0.036,1.82 ± 0.086
SAGGLDGDMKVDEMEHDPNNGTYRYKAEAGDQWWTFEMKVVPVIPPIPISISPEDLQEGNWNISIWFSAGGS [r16_809_TrROS],1.46 ± 0.05,2.39 ± 0.08,2.09 ± 0.2
SAGGLNFEIIEVSPNHIIARFPDAGYIIMAKIKMEWKPKRDPENGKPRYEPKFKIDIHVIPLKPGQPISAGG [r13_322_TrROS],3.27 ± 0.09,4.66 ± 0.17,4.09 ± 0.12
SAGGLTVVSVDPSTNTITIKLGNKDIEITVPPDRPPEVTFTRDPSGTYTITITTEGSTTTYTIPLSQLPSAG [r5_500_JUSTAS],2.45 ± 0.052,3.143 ± 0.015,2.85 ± 0.07
SAGGLVIPVTFMFQDWEEAEEFANEIARELANLYPGRPVKIDVEVEPIRNPNNGKRYYMVEATIEIDPSAGG [r13_545_TrROS],2.01 ± 0.059,2.77 ± 0.033,2.6 ± 0.15
SAGGLVLPPDAVVTGTLTAPRPDGSTVTVRARVRFPPRPPPPPLVLVRLPDGSVRPVRSLEEARRLASAGGS [r16_580_TrMRF],3.16 ± 0.11,3.76 ± 0.059,3.49 ± 0.1
SAGGLYVFDKNGKIISKVPKVEPIPIVITFPDGEKVLFEKYPGLNIIVVSYEGENPEKVKEAVKKILSSAGG [r13_701_TrMRF],0.835 ± 0.075,1.06 ± 0.14,0.977 ± 0.13
SAGGMATITVTSDGVLKVTFVDPATGSPVKTIPLPLSEVEQLGAEKGSPLSLEEILKELGYPTEITLGSAGG [r13_836_JUSTAS],1.52 ± 0.059,1.48 ± 0.008,1.51 ± 0.045
SAGGMDPDDLKGMPPEQAKDIVRDWIREYMQERNPNMPPGMKITDVPVEVRDPDNGKEIEVKVEIENYSAGG [r13_555_TrROS],-0.936 ± 0.37,-0.00917 ± 0.33,-0.242 ± 0.33
SAGGMEEVIEEAIEAAKKGENVTITLPASVDPEVVLKALEEASGLKVTPISVTPLPDGTLRIEVKIESAGGS [r16_318_JUSTAS],4.24 ± 0.19,4.24 ± 0.14,5.08 ± 0.54
SAGGMEFTPDQFLIIVLGLPDDTLEVAIIPAGDIEKAFEELGFPLEEVDILEIVEADLTPEEAEELAESAGG [r13_850_TrMRF],1.81 ± 0.1,1.55 ± 0.046,1.68 ± 0.088
SAGGMELFELEFEAEITPLEEPDKPVPVKIRILKRVEPVPNEPGFKVHYRALLENEEGVVPFEFTLDSAGGS [r16_300_TrMRF],0.998 ± 0.055,1.74 ± 0.085,1.42 ± 0.085
